This note sets out measurements from publication PMC3847722 (Toxins, 2013).

This test deals with T1, botulinum neurotoxin serotype B (Clostridium botulinum., UniProt P10844).
T1 construct: source: bought: Metabiologics Inc
As to the kind of experiment: BLI; […], dissociation in PBS 1800 s; 1:1 model, […]. The following applies: both partners purified.

One may read the Kd as a measure of binding affinity in units of concentration. Lower therefore signals higher affinity.

B1: MCS6-27 (antibody, V domains shown)
VH: EVQLEQSGPGLVKPSQSLSLTCTVTGYSITNDYAWNWIRQFPGNKLEWMGYINYSGTTSYNPSLKSRISITRDTSKNQFFLQFNSVTTEDTATYYCARSPLAYWGQGTLVTVSA
VL: DIVLTQTPASLSVSVGETVTITCRASENIYSHLAWYQQKQGKSPQLLVYTATNLADGVPSRFSGRGSGTQYSLKINSLQSEDFGIYFCQHFWGTPWTFGGGTKLEIK
notes: also called mAb MCS6-27; mAb6-27
Molecule B1 displayed a Kd of 0.086 nM.
